Data: patent US9115359B2, “Methods for producing secondary metabolites” (NewSouth Innovations Pty Limited, priority 2007, dated 2015)

What was measured:
[1] = target: Bacillus brevis ATCC8185 NRPS peptidyl carrier protein involved in tyrocidine biosynthesis (TycPCP) (Bacillus brevis ATCC8185)
[2] = target: truncated SACP, SACP3 (Synechocystis sp. PCC6803) (UniProt P20804)
[3] = substrate: CC(C)(COP(=O)(O)OP(=O)(O)OC[C@H]1O[C@@H](n2cnc3c(N)ncnc32)[C@H](O)[C@@H]1OP(=O)(O)O)[C@@H](O)C(=O)NCCC(=O)NCCS; assay: Phosphopantetheinylation assay with HPLC analysis: kinetics of Sppt with respect to CoA, carrier protein SACP3 (truncated SACP); assay type: biochemical, Synechocystis sp. PCC6803; conditions: other: Michaelis-Menten fit, 37° C.
Text: Sppt and SACP were expressed and purified to determine the activity of Sppt via phosphopantetheinylation assays. Sppt was amplified by the primer pair SynPpF (5′-TGTTTAAACTCACCTG-3′) (SEQ ID NO: 9) and SynPpR (5′-CCCAAGGTTACGAAAC-3′) (SEQ ID NO: 10). The resulting PCR product was cloned into pGEM-T (Promega), digested with the restriction enzymes SacI and EcoRV and ligated into pET30 (Novagen, San Diego, Calif.). The Synechocystis sp. PCC6803 fatty acid synthesis (FAS) ACP, designated SACP (AcpP BA000022), was amplified by the primer pair ssl2084Efw (5′-[…]-3′) (SEQ ID NO: 11) and ssl12084 Hry (5′-[…]-3′) (SEQ ID NO: 12), digested with the restriction enzymes EcoRI and HindIII, and cloned into pET30. A truncated SACP, SACP3, was cloned and expressed for HPLC kinetic analysis using the primers 2084NdeF (5′-[…]-3′) (SEQ ID NO: 13) and 2083XhoR (5′-[…]-3′) (SEQ ID NO: 14).
The constructs were transformed into BL21(DE3) Rosetta (Novagen) for expression. Sppt was expressed at 37° C., with an induction concentration of 1 mM isopropyl-beta-D-thiogalactopyranoside (IPTG), for 3 hours. SACP and SACP3 were expressed at 37° C. with 1 mM IPTG for 20-40 min. Cultures were harvested at 5,000×g and cell pellets were stored at −80° C. Cell pellets were resuspended in Hepes buffer (Hepes 50 mM, NaCl 150 mM pH 7.4) and passaged three times through a cooled French pressure cell at […] (Paton Scientific, Victor Harbor, South Australia). […]
The protein concentrations were determined based on the calculated extinction coefficients: SACP 6,970 cm^−1M^−1, Sppt 53,110 cm^−1M^−1. […]
Sppt activity towards SACP was determined in a 10 min phosphopantetheinylation assay at 37° C. as previously described in Copp J. N., Roberts A. A., Marahiel M. A., Neilan B. A., 2007, Characterization of PPTNs, a cyanobacterial phosphopantetheinyl transferase from Nodularia spumigena NSOR10. […]
The CoA inhibition and pH activity range for Sppt was determined using in vitro phosphopantetheinylation assays with the truncated SACP3. […]

TycPCP = assay: Sppt in vitro phosphopantetheinylation of non-cognate carrier proteins, ESI-MS; assay type: biochemical, Bacillus brevis ATCC8185; conditions: 30 min reaction; estimated from holo- and apo-CP abundance in mass spectra
Method: (§1) Sppt activity towards SACP was determined in a 10 min phosphopantetheinylation assay at 37° C. as previously described in Copp J. N., Roberts A. A., Marahiel M. A., Neilan B. A., 2007, Characterization of PPTNs, a cyanobacterial phosphopantetheinyl transferase from Nodularia spumigena NSOR10. J Bacteria 189(8):3133-9. Briefly, the 100-200 μl reactions comprised of 50 mM Tris-HCl pH 7.4, 12.5 mM MgCl2, 0.5 mM CoA, 2 μM DTT, 100 μM carrier protein and 300 nM Sppt. Reactions were incubated for 10 min at 37° C., terminated by the addition of 1 ml trichloroacetic acid and precipitated overnight at −20° C. before centrifugation for 15 min at 18,000×g. Samples were dissolved in water:acetonitrile:formic acid (50:49:1). Phosphopantetheinylation was observed by an increase in mass of 340 Da as visualised by electrospray ionisation mass spectrometry (ESI-MS). […]
(§2) The ability of Sppt to activate carrier proteins from a range of secondary metabolism pathways was tested, including those from unicellular and filamentous, heterocyst-forming cyanobacteria. […] Protein concentrations were determined based on the calculated extinction coefficients: NpArCP 8,250 cm^−1M^−1, NpACP 13,940 cm^−1M^−1, MPCP 6,970 cm^−1M^−1 and TycPCP 9,530 cm^−1M^−1. Phosphopantetheinylation assays were carried out in 30 min reactions and analysed by ESI-mass spectrometry described in Example 4 above.

MPCP = assay: as above; assay type: biochemical, M. aeruginosa PCC7806; conditions: 30 min reaction
Method: as §1, §2

NpACP = assay: as above; assay type: biochemical, N. punctiforme ATCC29133; conditions: 30 min reaction
Method: as §1, §2

NpArCP = assay: as above; assay type: biochemical, N. punctiforme ATCC29133; conditions: 30 min reaction
Method: as §1, §2

## Synechocystis sp. PCC6803 phosphopantetheinyl transferase (Sppt) (from UniProt Q55185) (enzyme)
[1]
  phosphopantetheinylation of the carrier protein (30 min assay, ESI-MS; % holo-CP): 54%
[2]
  kcat of phosphopantetheinylation of SACP3 (HPLC assay, CoA varied) (min^-1 (printed min^d)): 28.4

B1: Synechocystis sp. PCC6803 phosphopantetheinyl transferase Sppt (slr0495, Swissprot accession number Q55185) (Synechocystis sp. PCC 6803 substr. Kazusa) (protein)
chain: MAISAEFALCLNSPVLPQPQIWLCPTDRPLIPGYQALLSSEEMARGERYQRPQDKQRFLTMRLALRILLARQLDCLPQQLQFTYGPQGKPELVDRERRSPWFNVAHSGNYGLIGLSTEGEIGVDLQIMLPKPHYLKLAKRFFAPQEVQQLESLEGEKRTKLFYQLWTAKEAFLKATGKGISGGLNQVIPDENLAKYQYLPDSGDTNHWRLSSQPLLADQGSNDNYWMAIAWCTNEVNQVESNYLPNIQPFQWPRNLHSLPSFRYLGKGEFQHTGGRY
notes: carrier-protein substrate truncated SACP3
[3]
  Km: 169.17 ± 37.48 µM
  kcat: 0.473 s⁻¹
  kcat/Km: 2800 M⁻¹ s⁻¹

B2: Sppt: Synechocystis sp. PCC6803 phosphopantetheinyl transferase (slr0495, Swissprot Q55185) (protein)
chain: MLPQPQIWLCPTDRPLIPGYQALLSSEEMARGERYQRPQDKQRFLTMRLALRILLARQLDCLPQQLQFTYGPQGKPELVDRERRSPWFNVAHSGNYGLIGLSTEGEIGVDLQIMLPKPHYLKLAKRFFAPQEVQQLESLEGEKRTKLFYQLWTAKEAFLKATGKGISGGLNQVIPDENLAKYQYLPDSGDTNHWRLSSQPLLADQGSNDNYWMAIAWCTNEVNQVESNYLPNIQPFQWPRNLDSLP
TycPCP
  TycPCP phosphopantetheinylated (% holo-CP): approximately 54%
MPCP
  phosphopantetheinylation of MPCP: small mass peak corresponding to the addition of a 340 Da phosphopantetheinyl moiety
NpACP
  phosphopantetheinylation of NpACP: not reproducibly detected
NpArCP
  phosphopantetheinylation of NpArCP: unable to phosphopantetheinylate
